What is called stoichiometry N is the number of molecules, sites or subunits per partner or assembly.

These results are taken from PMC4660579.

This test addresses Drosophila melanogaster glutathione transferase epsilon 6 (Drosophila melanogaster). Nature of the test: crystal structure; DmGSTE6 at 15-20 mg/ml with 10 mM GSH, 20% PEG3350, 0.2 M sodium thiocyanate, sitting drop vapour diffusion at 288 K; 1.72 Å; homodimer.

Turning to “Drosophila melanogaster glutathione transferase epsilon 6 (enzyme)”, the stoichiometry N is 2.
